These results are taken from patent publication US20240239887A1 (SUZHOU KANOVA BIOPHARMACEUTICAL, published 2024).

Test [1] concerns the target T1, TIGIT (SPR analyte) (human, UniProt Q495A1 22-141, limits assumed).
T1 construct: the text says only 'TIGIT was used as the analyte'; The construct is not described; also called human TIGIT
T1 sequence (looked up): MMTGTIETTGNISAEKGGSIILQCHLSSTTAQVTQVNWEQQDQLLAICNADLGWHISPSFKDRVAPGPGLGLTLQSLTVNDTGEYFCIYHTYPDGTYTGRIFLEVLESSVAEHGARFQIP
As to the kind of experiment: SPR (Biacore 8K), antibody captured through Fc, TIGIT as analyte. As for the experimental part: TIGIT was used as the analyte. The surface was regenerated before the injection of another antibody. The process was repeated until all antibodies are analyzed. The off-rates of antibodies were obtained from fitting the experimental data locally to 1:1 interaction model using the Biacore 8K evaluation software. The antibodies were ranked by their dissociation rate constants (off-rates, kd) (Table 1). Based on the ranking result, the top 4 clones were selected.
(In SPR one partner is held on a chip, and binding of the other changes the refractive index at the surface.)

The target of test [2] is T2, human TIGIT/mIgG2aFc recombinant protein (human, UniProt Q495A1 22-141).
T2 construct: range 22-141; In-house production; also called TIGIT/mIgG2aFc protein; human TIGIT/mIgG2aFc protein; not shown: mouse IgG2a Fc
T2 sequence (looked up): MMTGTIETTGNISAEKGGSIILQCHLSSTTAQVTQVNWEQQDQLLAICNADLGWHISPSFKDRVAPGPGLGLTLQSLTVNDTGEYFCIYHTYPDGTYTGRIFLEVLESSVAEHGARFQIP
Briefly: ELISA, plate coated with human TIGIT/mIgG2aFc, anti-human IgG-HRP detection. As for the experimental part: MaxiSorp 96-well plates (NUNC #449824) were coated with 2 μg/mL human TIGIT/mIgG2aFc protein (in-house production, the method is well known in the art) in 1× PBS (50 μL/well). Plates were incubated at 4° C. overnight. Coating solution was removed and plates were washed once with 200 μL/well PBST (1× PBS containing 0.05% tween-20). Then 200 μL/well blocking buffer (1× PBS with 0.05% tween-20, 3% BSA) was added and incubated at room temperature for 1 hour. Blocking buffer was removed and plates were washed three times with 200 μL/well PBST. Antibody VH2+VL4 (produced in Example 2) and human IgG1 isotype control (hIgG1, Sigma #I5154-1MG) was diluted by 1× PBS and added to plates (50 μL/well). Plates were incubated at room temperature for 2 hours. Antibodies in the wells were removed and plates were washed three times with 200 μL/well PBST. Goat anti-human IgG(H&L)-HRP secondary antibody (Jackson Immuno Research #109-035-088) was diluted 1:5000 in 1× PBS and added to each well (50 μL/well). Plates were incubated at room temperature for 1 hour. Secondary antibody was removed and plates were washed five times with 200 μL/well PBST. 50 μL/well TMB (eBioscience #85-00-4201-56) was added and plates were incubated at room temperature for several minutes. Then 50 μL/well 2N H₂SO₄ was added to stop the reaction. Optical density was measured at 450 nm.
(ELISA stands for enzyme-linked immunosorbent assay.)

Test [3] concerns the target T3, full-length cynomolgus TIGIT on 293T cells (cynomolgus, UniProt A0A7N9I9V4 89-312).
T3 construct: whole, on cells; also called cynomolgus-expressing 293T cells
As to the kind of experiment: flow cytometry on 293T cells transfected with cynomolgus TIGIT, biotin-labeled antibody detected with Brilliant Violet 421 streptavidin, readout % of bound cells. The method, then:
A DNA encoding full-length cynomolgus TIGIT (NCBI Accession No: XP_015300911.1) was cloned into pcDNA3.4 vector (Invitrogen #A14697) and transfected into 293T cells (Cell Bank, Chinese Academy of Sciences, #SCSP-502) by using Polyethylenimine Max reagent (Polysciences #24765-2). 48 hours post-transfection, cynomolgus-expressing 293T cells were incubated with different concentrations of biotin-labeled (Thermo #21338) anti-TIGIT antibody VH2+VL4 at 4° C. for 20 minutes. Then cells were washed once by FACS buffer (PBS with 2% FBS) and incubated with Brilliant Violet 421 Streptavidin (Biolegend #405225) at 4° C. for 30 minutes. After washed once by FACS buffer, cells were resuspended in 200 μL FACS buffer. The cells after staining were analyzed by BD FACSCelesta Flow Cytometer.
In general terms: In flow cytometry, cells or beads pass a laser one at a time.

The target of test [4] is T4, full-length human TIGIT on Jurkat/TIGIT cells (human, UniProt Q495A1 22-244).
T4 construct: whole, on cells; also called Human TIGIT-expressing Jurkat cells; TIGIT expressed on cell surface
T4 sequence (looked up): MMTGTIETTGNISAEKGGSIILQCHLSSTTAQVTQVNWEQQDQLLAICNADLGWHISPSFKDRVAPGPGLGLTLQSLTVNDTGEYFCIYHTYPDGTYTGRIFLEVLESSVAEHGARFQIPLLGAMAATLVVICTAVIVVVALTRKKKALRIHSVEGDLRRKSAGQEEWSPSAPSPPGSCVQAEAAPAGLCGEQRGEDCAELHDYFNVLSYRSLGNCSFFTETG
As to the kind of experiment: flow cytometry on Jurkat/TIGIT cells, Alexa Fluor 594 goat anti-human IgG secondary antibody, readout % of bound cells. As for the experimental part: Jurkat/TIGIT cells were incubated with different concentrations of anti-TIGIT antibody VH2+VL4 or human IgG1 isotype control at 4° C. for 30 minutes. Then cells were washed once by FACS buffer (PBS with 2% FBS) and incubated with Alexa Fluor 594 AffiniPure Goat Anti-human IgG secondary antibody (Jackson ImmunoResearch #109-585-088) at 4° C. for 30 minutes. After washed once by FACS buffer, cells were resuspended in 200 μL FACS buffer. The cells after staining were analyzed by BD LSRFortessa Flow Cytometer.

T3 sequence (A0A7N9I9V4 entry or part of it): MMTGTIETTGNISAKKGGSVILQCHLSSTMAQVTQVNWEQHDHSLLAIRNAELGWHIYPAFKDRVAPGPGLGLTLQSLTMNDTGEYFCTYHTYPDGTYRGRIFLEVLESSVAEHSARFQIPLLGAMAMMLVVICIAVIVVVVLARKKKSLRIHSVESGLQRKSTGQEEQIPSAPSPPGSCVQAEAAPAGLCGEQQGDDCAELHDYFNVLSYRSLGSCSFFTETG

B1: VH3 + VL3 (antibody, human IgG1, kappa, V domains shown)
VH: QVQLVQSGAEVKKPGASVKVSCKASGYTFSRYWIEWVRQAPGQGLEWMGEIFPGSGGTNYNEKFKGRVTMTRDTSTSTVYMELSSLRSEDTAVYYCARHLGALDYWGQGTLVTVSS
VL: EIVLTQSPGTLSLSPGERATLSCSASSSVSYIHWYQQKPGQAPRLLIYRTSNLASGIPDRFSGSGSGTDFTLTISRLEPEDFAVYYCQQYHSNPWTFGGGTKLEIKR
notes: Humanized full-length IgG; also called HC2 + LC2
For orientation: Kd means the concentration at which binding is half-saturated. Low values mean a tighter complex, high ones a looser complex. Usually koff stands for a measure of how fast the partners let go of each other. Read a low koff as a long-lived complex. By kon is commonly meant a measure of how fast the partners come together. High values mean fast association, low ones slow association. In test [1], B1 had a Kd of 111 pM, a koff of 3.25e-05 s⁻¹ and a kon of 294000 M⁻¹ s⁻¹.

B2: anti-TIGIT antibody VH2+VL4 (antibody, human IgG1, kappa)
heavy: not shown
light: DIVMTQSPDSLAVSLGERATINCSASSSVSYIHWYQQKPGQPPKLLIYRTSNLASGVPDRFSGSGSGTDFTLTISSLQAEDVAVYYCQQYHSNPWTFGGGTKLEIKRTVAAPSVFIFPPSDEQLKSGTASVVCLLNNFYPREAKVQWKVDNALQSGNSQESVTEQDSKDSTYSLSSTLTLSKADYEKHKVYACEVTHQGLSSPVTKSFNRGEC
notes: Biotin-labeled in the cynomolgus TIGIT flow cytometry assay; also called HC1 + LC3
As a reminder, the EC50 is the midpoint of the concentration-response curve. For the molecule B2, the EC50 in test [2] turned out to be 470 pM. In test [1], the Kd stood at 101 pM, the dissociation rate constant (koff) was 4.47e-05 s⁻¹ and the kon came out at 444000 M⁻¹ s⁻¹. In test [3], this molecule gave an EC50 of 20 pM. The 50% effective concentration (EC50) in test [4] was determined as 1130 pM.

B3: VH3 + VL4 (antibody, human IgG1, kappa, V domains shown)
VH: QVQLVQSGAEVKKPGASVKVSCKASGYTFSRYWIEWVRQAPGQGLEWMGEIFPGSGGTNYNEKFKGRVTMTRDTSTSTVYMELSSLRSEDTAVYYCARHLGALDYWGQGTLVTVSS
VL: DIVMTQSPDSLAVSLGERATINCSASSSVSYIHWYQQKPGQPPKLLIYRTSNLASGVPDRFSGSGSGTDFTLTISSLQAEDVAVYYCQQYHSNPWTFGGGTKLEIKR
notes: Humanized full-length IgG; also called HC2 + LC3
With B3, in test [1], binding was put at a Kd of 110 pM, the koff was 4.38e-05 s⁻¹ and the association rate constant (kon) stood at 396000 M⁻¹ s⁻¹.

B4: VH4 + VL2 (antibody, human IgG1, kappa, V domains shown)
VH: EVQLVQSGAEVKKPGESLKISCKGSGYTFSRYWIEWVRQMPGKGLEWMGEIFPGSGGTNYNEKFKGQVTISADKSISTAYLQWSSLKASDTAMYYCARHLGALDYWGQGTLVTVSS
VL: DIQMTQSPSSLSASVGDRVTITCSASSSVSYIHWYQQKPGKAPKLLIYRTSNLASGVPSRFSGSGSGTDFTLTISSLQPEDFATYYCQQYHSNPWTFGGGTKLEIKR
notes: Humanized full-length IgG; also called HC3 + LC1
In test [1], B4 gave an equilibrium dissociation constant (Kd) of 122 pM, a dissociation rate constant (koff) of 4.97e-05 s⁻¹ and an association rate constant (kon) of 407000 M⁻¹ s⁻¹.

B5: Chimeric VH+VL (Parental mouse VH+VL combined with human Fc) (antibody, human IgG1, kappa, V domains shown)
VH: QVQLQQSGAELMKPGASVKISCKATGYTFSRYWIEWVKQRPGHGLEWIGEIFPGSGGTNYNEKFKGKATFTADTSSNTAYMQLTSLTSEDSAVYYCARHLGALDYWGQGTSVTVSS
VL: QIVLTQSPAIMSASPGEKVTISCSASSSVSYIHWYQQKAGSSPKPWIYRTSNLASGVPARLSGSGSGTSYFLTISSMEAEDAATYYCQQYHSNPWTFGGGTKLEIKR
notes: also called chimeric antibody
On to B5, for which, in test [1], the dissociation constant Kd came out at 179 pM, the koff came to 5.56e-05 s⁻¹ and the on-rate constant (kon) was 310000 M⁻¹ s⁻¹.
